Reference: patent CN114958811A

Target: RBD-His (近岸生物 货号 DRA42) (SARS-CoV-2) (UniProt P0DTC2)

“hACE2-Fc融合蛋白 (fusion of the human ACE2 extracellular domain with the Fc fragment of human IgG1) (Fc fusion)” was tested, and the 亲和力 was 0.54 nM.
